{"source": "the DeepSol protein solubility set", "data": [{"test": "soluble on expression in E. coli; label from the status in PepcDB or PDB records", "values": [{"sequence": "MKLSDMQLFRGLEEDDISSLLSCLNSVKRNYKKGEVILSEGSIIENIGIVLSGMAMISCNEIWGNTSILGSVAPGSVFAEVYACIPGQPMLVTVSAVEDTSVLFMNVGRVLTTCTNACPFHTNLARNLLTVCAHKSLQLSQRILHTSSKSIRGRLMSYFSECAKHAGSNSFLIPYNRQQLADYLNVDRSTMCNELSKMQKDGMIEYKKNRILLKD", "soluble on expression in E. coli": "not soluble"}, {"sequence": "MSNPLFPTESAALTLDGPVGPLDVAVDLPEPDVAVQPVTAIVCHPLSTEGGSMHNKVVTMAARALRELGITVVRFNFRSVGTSAGSFDHGDGEQDDLRAVAEWVRAQRPTDTLWLAGFSFGAYVSLRAAAALEPQVLISIAPPAGRWDFSDVQPPAQWLVIQGDADEIVDPQAVYDWLETLEQQPTLVRMPDTSHFFHRKLIDLRGALQHGVRRWLPATP", "soluble on expression in E. coli": "soluble"}, {"sequence": "GATVHELSRDKKKDTVPWFPRTIQELDRFANQILSYGAELDADHPGFKDPVYRARRKQFADIAYNYRHGQPIPRVEYMEEEKKTWGTVFKTLKSLYKTHACYEYNHIFPLLEKYCGFHEDNIPQLEDVSQFLQTCTGFRLRPVAGLLSSRDFLGGLAFRVFHCTQYIRHGSKPMYTPEPDICHELLGHVPLFSDRSFAQFSQEIGLASLGAPDEYIEKLATIYWFTVEFGLCKQGDSIKAYGAGLLSSFGELQYCLSEKPKLLPLELEKTAIQNYTVTEFQPLYYVAESFNDAKEKVRNFAATIPRPFSVRYDPYTQRIEVLDNT", "soluble on expression in E. coli": "soluble"}, {"sequence": "MAHHHHHHMNFLKRNATNICKGKVLGKHLNTSVQELTNLNKRKFSNIINLGKYGQRYQATHSGSIIGAKRFASGEAQKLSEVVKAEVQHEKSNYEAPDNIKKFLQTSGWKFEEQEGDVNMVLTKNVDGMKIIIDFQLVSPFQAEGENEAQAEMTDFSVTVEKPNKQGGITFYCTTLQNDEKFRYMIGNVKYYKNEEGKNSVSAYNGPEFEDLDDSLQTSLDEWLANLGVDSELCDFIDSCSIDKEQREYMSWLQNISNFIES", "soluble on expression in E. coli": "soluble"}, {"sequence": "MASNSRSSISPWTFSQNKMFERALAVYDKDTPDRWHNVAKAVGGKTVEEVKRHYDILVEDLINIETGRVPLPNYKTFESNSRSINDFDTRYITKYLYMMLSIYFDNHSSDFEKFSQKVLVSYISLV", "soluble on expression in E. coli": "soluble"}, {"sequence": "MGSDKIHHHHHHMKGISHRIAIPLILEVGNNKIYNIGQIIKKGNFKRVSLYFGEGIYELFGETIEKSIKSSNIEIEAVETVKNIDFDEIGTNAFKIPAEVDALIGIGGGKAIDAVKYMAFLRKLPFISVPTSTSNDGFSSPVASLLINGKRTSVPAKTPDGIVVDIDVIKGSPEKFIYSGIGDLVSNITALYDWKFEEENHKSIIDDFAVMISKKSVNSFVRTDFKSIKDEVFLKELVDSLTMNGIAMEIAGNSSPASGAEHLISHALDKFLPNPQLHGIQVGVATYIMSKVHKHREERIKKILSDTGFFNYVKGLNMKKSDFKRAISEAHLIKPARYTYLHVEKNCETAKEIVDTDEILRNILV", "soluble on expression in E. coli": "not soluble"}, {"sequence": "MSLIDWTRPLADRMRPRLLTEFVGQSHLLDAGKPLREVIEAGRPHSMVFWGPPGTGKTTLARLIAEATEAEFLALSAVMAGVKEIRQASATGQANRARGRQTILFVDEVHRFNKAQQDAFLPFIEDGTVVFIGATTENPSFELNNALLSRLRTYVLRPLGEAALARIIDCALEDSERGLGTKQLALSEQARSLLIQAADGDARSALSLLEVAADLSAAEARIDIDLIRAAAAGGRARFDKRGEAFYDEISALHKAVRGSAPDAALYWLCRMLAGGCDPLYLARRLLRMASEDIGNADPRGLQVALNAWQAQERLGSPEGELAIAQAVVYLASVPKSDAVYRAYRLAAEDVRSHGSLEVPLALRNAPTRLLRELGYGRGYRYAHDEPEGYAAGAEYFPAELIGTRYYHPADRGLERQIGERLRRLRELDRATEGHHHHHH", "soluble on expression in E. coli": "not soluble"}, {"sequence": "MAHHHHHHMKSTRTTAKVRPACLPYSTTMRSSRQTSSLLSRVAHSVGAVVAKANLLRQSPSREAHRPSGPAEGLRPSSSSAKPPVLASGDILRDLAFFTQASEVGFFSTHPSLCAQVFGVVPGDVFEVGGGCAVTSSSVVDVDAGSRMAREAIVVVGARSGKLWVWAYGDEAARVLRVPSSTTSAMLSSAVEVRAAIVEHYQLRQLVHPSRRQCSAGGGKAMEQDAQVEFARTVCEAFQSLCARAHEEVQRLYTPDQLAFLQRAPDLYAAATKRVDRVASSLDDASPTAGVNSEPQRQQPNHPPDGSSSFLPRSIYSDIARHAQHAAAVVLLAPRVSLVTGAVGWVGEGDVVLADSLVSQGGCAEASLSASVVI", "soluble on expression in E. coli": "soluble"}, {"sequence": "MARSRRDKNVSLTKVKKKTKDTKNNLVNEVRASVDQYKNLFIFTIANMRSTRFIAIRQKYKENSRFFFGKNNVISIALGKQKSDEYANQLHKASAILKGQCGLMFTNMSKKEVEAEFSEASEEDYARVGDVATETVVLPEGPISQFAFSMEPQLRKLGLPTKLDKGVITLYQQFEVCKEGEPLTVEQAKILKHFEVKMSQFRLIFKAHWNKKDGFKELDA", "soluble on expression in E. coli": "not soluble"}, {"sequence": "LSGSIYVLGGGENLKVTMMDAALKYAEANIPVIPLHWICEDGSCSCKTRSDCDSKGKHSLYTGWYNNSTTDVEQIRKWWTNVNVNKNLVLSKVS", "soluble on expression in E. coli": "not soluble"}, {"sequence": "MAHHHHHHMWCTRLCREEGLFRFLRNLFEVLDFVTERCRRCLDTSSCLLLLCASPLSSCSIGGPHTRGCFNEILHRLSRGAQQPAHRRQSATSSHPRTPWRLHRFNDERVCVWGGNPPPQSTTGRHRSLCTPFSLSHTPSTAWAPLLPADKHHMQASPVLAGAAVRRTATASVGSEPRTNLPFLINVVKKAQKSANTVVASTPALSSMSSTKEPPIQAAAFKPYPLLSPGEVKQAAGSSLLYKDDVCVLVNDAFPKSMVHCLVMPLDLRLQSLNALTKKDAPLLRHMLHVGDEYVRYLKTAVPHTYTARRFIAGFHALPSLPMLHMHVLSTDLDSPCLKNKKHYNSFATFFFLTGDRVLDDLERHGRVTLNQDVTRLRQMEEQDMKCLWCGTALPSVPAMKSHIQCCPQNKAVEKSS", "soluble on expression in E. coli": "not soluble"}, {"sequence": "MLTIHTKLISAMITQSLKDHPIETCGIIAGLAGSNLPLRLIPMRNVAQSENFFMFDPQQQLQVWKEMSARHEEPVVIYHSHTGSEAYPSRSDVELAAEPQAHYVIIPTCSPHKEEIRSFRIVDQMVIEERVQIVRQYQPELEFQMMVALEHHHHHH", "soluble on expression in E. coli": "not soluble"}, {"sequence": "MSLKITNVQTQKVLVPLKKPLITAIHKTDSVGVVIVKIETDTGLVGENYVFALNKDRLDVFDAMIKSLTQFLIGNNPVYVEKIWQQMWQDCNPVGQKGIAISAISAIDTALWDLIGKQANMPLYQVFGACRDKVKTYASSGLWLSSNIDELIEEAHGFIDQGFRSMKLRLGKPDLKEDVERARALRASVGDDIEILTDANQSLTPRQAIALGRQLEDLNIAWLEEPVPAHDLAGHNRVLEAINIPVASGETDYTRFGMKDMLDHKAVDILMPDLQRIGGLSEFRKAAALASAYHIPVSSHIFTEQSLSIAGSADNCISVEHVDWFAPLYQEKIVINDGFIDMPMGAGIGFNFDYDFIDQNLIEGHHHHHH", "soluble on expression in E. coli": "soluble"}, {"sequence": "MGQELNKIGIEVLRIVSIRDREEEIMEAVDNAMKRVNIVLVTGGLGPTKDDITKQTLCKYFHTELIFSEEVFENVKRVLAGKIPMNALNKSQAMVPKDCTVINNPVGSASVSWFEKDNKVLVSMPGVPQEMTAVMTESVLPKLREKFQTDVIMHRTFLVQHYPESILAEKLEPWETALPESIKLAYLPKLGIIRLRLTGRGQNKIEVESALNDEQAKLEAILGDDIFSEEDIPLEVIVGELLKKKNLTVSTAESCTGGSIAARLTSIAGSSEYFNGGIVAYSNEVKMNLLHVSPETLEVYGAVSEQTVIEMVKGAMKALKTDCAVATSGIAGPGGGTPEKPVGTVWIAAGYKNEIRTYRQETNRGRAMNIERAGNNALLILRDLLK", "soluble on expression in E. coli": "not soluble"}, {"sequence": "MGSDKIHHHHHHMFRTVALTGATGFIGRVLIAKLAASGWKVRALARRVPFRQDLPLVEWICGDMNCDSVLCDLVSGTEAVIHCAGAIRGKSWDDFSRTNVTGTRNILRAASGAPSCSRFLFISSLAAREPHLSWYARSKFEAEQLIPGFSGLASTVFRPAAVYGLGDKAMQPFFQAMRYGILLVPGDPGNRFGLIHVDDMVAAIHNWLEAGQPVKGTYEIDDGTSGGYDYTSIAALAEQVLSRPVHCLQIPLGGIRMLARFNLWLAHLLNYAPILTPGKVMEFQHPDWTCDISSLKRELAGWSPVTKLETVLPLLVRM", "soluble on expression in E. coli": "not soluble"}, {"sequence": "MDNKVILVGGFHEIIELCEDNDIEIAGIIDNYLTNDTYWGYPIIGTDDKAKVLFETYKNVPVLITPDVPHVRYKLYHYYKSIGFQVASLISRDASISRSAIIGEGTIIQRGANLSSNIKIGQMVKVNTNANIMHDCLIGNYVTVAPNAVLLGKVEIDDKAYIGANATLLPSVKIGENVTVGAGSVVTKSVRLEHHHHHH", "soluble on expression in E. coli": "not soluble"}, {"sequence": "PARLSTADKYTENPVSGVMAQLYSARSKNSWGMGDFNDLGLLAETLAPQADYLLINPLHAAEPMPPVEDSPYLPTTRRFINPIYIRIEDIPEHLLLDDDLQNDIAELAEKFTALNLTPEKIERNPIFDAKLQVLHAVFNVEREPAREQDFQDFIATEGQGLRDFASWCADQELAVLESSAAHAALPEKESLIQFYMWQQWICDQQLGAAQTRATD", "soluble on expression in E. coli": "not soluble"}, {"sequence": "MGSDKIHHHHHHMWELDVSPTRFKAHFSLDPGVACLNHGMLGACPISVQQRQSTLRAQLERQPAAFVLRALPALLDTARNCLAEVIGADPQDLLLLPNVTTAMSAVLRSRIFAPGDQILTTDHAYLSCRNLLEFIARSTGAEVMVAPVKVPVQHPDAIVDAVLERVTARTRLAVLDHVTSPTAIVFPIARLVERLAALGIDTLVDGAHAPGMLPLDVIAIGAAYYAGDCHKWLCTPRGAGFLHVRRDRQDGLHPPVISRGYGDATPGRPRLHLEFDWLGTADPTALLCIPAAIDFLATLLPGGLPAVFARNHALVTQAAARLAQALPLARLAPDAMVGSMVAFQLPDAASDAPDDAAASLQRWLYDAHRIDVAVTPWPHRTNRTLRISAQVYNAAEDFMQLDAPLAQCLAPDDRQSNNQCRTTEVMR", "soluble on expression in E. coli": "not soluble"}, {"sequence": "VEGAVKTEPVDLFHPGFLNSSNYRIPALFKTKEGTLIASIDARRHGGADAPNNDIDTAVRRSEDGGKTWDEGQIIMDYPDKSSVIDTTLIQDDETGRIFLLVTHFPSKYGFWNAGLGSGFKNIDGKEYLCLYDSSGKEFTVRENVVYDKDSNKTEYTTNALGDLFKNGTKIDNINSSTAPLKAKGTSYINLVYSDDDGKTWSEPQNINFQVKKDWMKFLGIAPGRGIQIKNGEHKGRIVVPVYYTNEKGKQSSAVIYSDDSGKNWTIGESPNDNRKLENGKIINSKTLSDDAPQLTECQVVEMPNGQLKLFMRNLSGYLNIATSFDGGATWDETVEKDTNVLEPYCQLSVINYSQKVDGKDAVIFSNPNARSRSNGTVRIGLINQVGTYENGEPKYEFDWKYNKLVKPGYYAYSCLTELSNGNIGLLYEGTPSEEMSYIEMNLKYLESGANK", "soluble on expression in E. coli": "soluble"}, {"sequence": "SLSDTQEPVKLRIVHFNDVYNVFSISGGLGGGAAPFCTGLREKRGPDGLVLFSGDIFSPSPLSEASKGRQMAELLNYLDVHTSCYGNHDLDFGWEWLELLAGTTKCKWVMSNARSKIGGGVLANAQRYRIFEWGTTQRVVVGIMALIEEDWIDTLNAPDQEEIVYQDFVEAGREMVALFRRRGCDLVIALTHMRWNNDEKLAREVDGIDLILGGHDHAYVTKLVNGTAVIKSGSDFREFSAITLTPKLHLREQGTSHATGFSADHDSLAADGKNGYPVAFSGSTGGVAEVDGLCRQHGDSSHAVKRAGVCECLGRTQPVRQTKPEVVEGIHTEETQPAKLWSSGRWWLSCEKVCVSADRFEADDSVMEMLVRYQTTYGNSQGCVLGAFPVLLETRFCEVRTRECNSGNWLADLMREYYGVDVALYNSGGIRSDCVFAEGEVVTSETLHAILSGTRQLDVIAVPGNLFKSILETSVSRWPQLEGRFLQVSGLRFVFEGSARVGERVLADEIQFRNRETGDWEPLVPDRVYSVATATFLARGGDGLSVLVDCPPLDTPQRNIRDLSELARLWFCRQHRKCGFEDVEEIPPRECEWIDR", "soluble on expression in E. coli": "not soluble"}]}]}
